Measurements from US20180185504A1 (Regeneron, published 2018).
One block for each binder: values may come before it.

How the values were obtained:
[1] = biological target: T1, human PRLR on cells (endogenous on T47D, T47D#11, MCF7); introduced in HEK293/hPRLR/STAT5-Luc, 293/hPRLR, … (human, UniProt P16471 25-622); assay: imaging of alexa488 intensity on T47D cells
T1 construct: no tag is stated for these lines; also called prolactin receptor
T1 sequence: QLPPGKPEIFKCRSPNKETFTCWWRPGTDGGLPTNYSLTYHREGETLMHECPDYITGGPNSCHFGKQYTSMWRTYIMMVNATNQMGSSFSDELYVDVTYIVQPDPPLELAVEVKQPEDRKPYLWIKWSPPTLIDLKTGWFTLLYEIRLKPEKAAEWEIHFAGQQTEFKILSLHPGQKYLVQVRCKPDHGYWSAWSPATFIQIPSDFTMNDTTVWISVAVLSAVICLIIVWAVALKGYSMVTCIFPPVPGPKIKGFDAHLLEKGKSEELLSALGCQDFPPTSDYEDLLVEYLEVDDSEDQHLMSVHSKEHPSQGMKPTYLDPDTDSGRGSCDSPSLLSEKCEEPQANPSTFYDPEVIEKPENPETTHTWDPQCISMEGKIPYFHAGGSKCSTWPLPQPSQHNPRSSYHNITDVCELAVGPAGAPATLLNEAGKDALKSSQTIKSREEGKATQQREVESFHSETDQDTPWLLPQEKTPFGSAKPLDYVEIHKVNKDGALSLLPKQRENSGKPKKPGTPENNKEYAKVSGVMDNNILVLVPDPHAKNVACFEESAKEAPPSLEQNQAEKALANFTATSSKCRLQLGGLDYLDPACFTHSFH
Experimental: Briefly, 20,000 T47D cells were seeded in collagen coated 96 well plates. […] Cells were then incubated with alexa488 conjugated anti-hFc Fab secondary antibodies for 30 minutes on ice followed by two additional PBS washes. Antibodies were allowed to internalize for 1 h at 37° C. in internalization buffer (PBS+2% FBS) or remained at 4° C. Cells were fixed in 4% formaldehyde, nuclei were stained with DRAQ5 (Cell signaling), and images were acquired on the ImageXpress micro XL (Molecular Devices). Whole cell alexa488 intensity at 37° C. (Binding) and the alexa488 intensity in the intracellular vesicles at 37° C. (Internalization) were determined via Columbus image analysis software (PerkinElmer).

[2] = biological target: T2, mfPRLR.mmh (soluble monomeric macaca fascicularis PRLR) (macaca fascicularis); assay: SPR (Biacore), antibody capture, 37 C
T2 construct: soluble monomeric PRLR protein; also called macaca fascicularis (mf) PRLR.mmh; monkey PRLR
T2 chain: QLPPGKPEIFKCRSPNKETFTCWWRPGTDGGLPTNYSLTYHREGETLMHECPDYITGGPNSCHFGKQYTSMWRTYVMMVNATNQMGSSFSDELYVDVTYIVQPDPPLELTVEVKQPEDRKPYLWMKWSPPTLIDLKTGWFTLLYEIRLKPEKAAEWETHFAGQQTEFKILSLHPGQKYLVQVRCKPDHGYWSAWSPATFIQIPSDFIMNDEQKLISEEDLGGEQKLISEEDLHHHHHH
Experimental: (§1) Measurements were conducted on a T200 Biacore instrument. Kinetic association (kₐ) and dissociation (kd) rate constants were determined by processing and fitting the data to a 1:1 binding model using Scrubber 2.0 curve fitting software.

[3] = biological target: T3, hPRLR.mFc (soluble dimeric human PRLR) (human); assay: SPR (Biacore), antibody capture, 37 C
T3 construct: dimeric PRLR construct
T3 chain: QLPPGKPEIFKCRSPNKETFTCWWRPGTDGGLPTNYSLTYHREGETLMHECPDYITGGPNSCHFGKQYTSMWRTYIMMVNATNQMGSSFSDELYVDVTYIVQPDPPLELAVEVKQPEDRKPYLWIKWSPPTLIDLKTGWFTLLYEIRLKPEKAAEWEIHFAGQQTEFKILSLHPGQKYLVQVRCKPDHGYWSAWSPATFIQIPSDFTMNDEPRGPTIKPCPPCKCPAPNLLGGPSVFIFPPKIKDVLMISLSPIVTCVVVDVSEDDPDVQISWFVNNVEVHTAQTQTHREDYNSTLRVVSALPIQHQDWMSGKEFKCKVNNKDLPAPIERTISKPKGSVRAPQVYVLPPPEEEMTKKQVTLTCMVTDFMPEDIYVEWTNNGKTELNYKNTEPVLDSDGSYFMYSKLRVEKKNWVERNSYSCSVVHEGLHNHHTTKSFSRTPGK
Experimental: as §1

[4] = biological target: T4, human PRLR construct with an HA tag on HEK293/hPRLR cells (human, UniProt P16471 25-622); assay: FACS on HEK293/hPRLR cells
T4 sequence: T1 sequence

% Total Binding relative to Control I [1]: 164% | Kd [2]: 2.71 nM | T 1/2 [2]: 4.5 min | koff [2]: 0.00256 s⁻¹ | kon [2]: 947000 M⁻¹ s⁻¹ | Kd [3]: 0.116 nM | T 1/2 [3]: 68 min | koff [3]: 0.00017 s⁻¹ | kon [3]: 1.47e+06 M⁻¹ s⁻¹ | FACS Cell Binding (Fold Above Background) [4]: 37 fold
B1: H1H6953N (antibody, human IgG1, V domains shown)
VH: EVQLLESGGGLVQPGGTLRLSCAASGFTFSAYAMSWVRQAPGKGLEWVSSINVRAGDTYYADSVKGRFTISRDNSKNTLFLLMNSLRAEDTAAYYCAKARYSSNWGFDFWGQGTLVTVSS
VL: DIVMTQSPDSLTVSLGARTTINCQSSQTILHSSNNHNYLAWYQQKPGLPPKLLIYWSSTRESGVPDRFSGSGSGTDFTLTISSLQAEDVAIYYCQQYSNTPYTFGQGTKLEIN
notes: also called H1M6953N

% Total Binding relative to Control I [1]: 153% | Kd [2]: 0.448 nM | T 1/2 [2]: 32 min | koff [2]: 0.000359 s⁻¹ | kon [2]: 802000 M⁻¹ s⁻¹ | Kd [3]: 0.09 nM | T 1/2 [3]: 105 min | koff [3]: 0.00011 s⁻¹ | kon [3]: 1.22e+06 M⁻¹ s⁻¹ | FACS Cell Binding (Fold Above Background) [4]: 32 fold
B2: H1H6807P (antibody, V domains shown)
VH: QVQLVESGGGVVQPGRSLRLSCAASGFTFSDYNMHWVRQAPGKGLEWVAVIWYDGSNKHYADSVKGRFTISRDNSKNTLYLQMNSLRAEDTAVYYCARDGFTIFGMVLDYWGQGTLVTVSS
VL: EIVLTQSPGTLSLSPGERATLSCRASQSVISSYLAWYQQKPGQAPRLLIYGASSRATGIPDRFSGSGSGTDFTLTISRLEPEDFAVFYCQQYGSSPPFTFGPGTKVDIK
notes: human IgG1 Fc (H1H)

% Total Binding relative to Control I [1]: 123% | Kd [2]: 6.16 nM | T 1/2 [2]: 2 min | koff [2]: 0.00599 s⁻¹ | kon [2]: 973000 M⁻¹ s⁻¹ | Kd [3]: 0.0402 nM | T 1/2 [3]: 149 min | koff [3]: 7.77e-05 s⁻¹ | kon [3]: 1.94e+06 M⁻¹ s⁻¹ | FACS Cell Binding (Fold Above Background) [4]: 1 fold
B3: H1H6795P (antibody, human IgG1, V domains shown)
VH: QVQLVQSGAEVKKPGASVKVSCKASGYTFGTSGITWVRQAPGQGLEWMGWSSAYNGKTDYAQKFQDRVTMTTDTSTTTGYMEMRSLTSDDTAVYYCTTVVRRPFDFWGQGTLVTVSS
VL: DIQMTQSPSSLSASVGDRVTITCRASQDINNFLAWFQQKPGKAPKSLIYAASSLQSGVPSKFSGGGSGTDFALTISSLQPEDFATYYCQQYSSYPITFGQGTRLEIK
notes: human IgG1 Fc (H1H)

% Total Binding relative to Control I [1]: 166% | Kd [2]: 1.08 nM | T 1/2 [2]: 43 min | koff [2]: 0.000267 s⁻¹ | kon [2]: 247000 M⁻¹ s⁻¹ | Kd [3]: 0.226 nM | T 1/2 [3]: 117 min | koff [3]: 9.84e-05 s⁻¹ | kon [3]: 436000 M⁻¹ s⁻¹ | FACS Cell Binding (Fold Above Background) [4]: 37 fold
B4: H1H6781P (antibody, human IgG1, V domains shown)
VH: EVQLVESGGDLVQPGESLRLSCTASGFTFNSYEMNWVRQAPGKGLEWVSYISSSGGTKYYVDSVKGRFTISRDNAKKSLYLQMNSLRADDTALYYCARLNGVDVFDIWGQGTMVTVSS
VL: DIQMTQSPSSLSASVGDRVTITCRASQDIFNYLAWFQQKPGKVPELLISAASTLQSGVPSRFSGSGSGTYFTLTISSLQPEDIATYYCQRYNSAPLTFGGGTKVEIK
notes: human IgG1 Fc (H1H)

% Total Binding relative to Control I [1]: 123% | Kd [2]: 5.22 nM | T 1/2 [2]: 4 min | koff [2]: 0.00321 s⁻¹ | kon [2]: 615000 M⁻¹ s⁻¹ | Kd [3]: 0.306 nM | T 1/2 [3]: 58 min | koff [3]: 0.000198 s⁻¹ | kon [3]: 646000 M⁻¹ s⁻¹ | FACS Cell Binding (Fold Above Background) [4]: 37 fold
B5: H1H6790P (antibody, human IgG1, V domains shown)
VH: EVQLVESGGGLVQPGGSLRLSCAASGFTFSSYAMTWVRQAPGKGLEWVSAITGSVGNTYYADSVKGRFTISRDNSKNTLYLQMNSLGAEDTAEYYCAKGAGMTTNWYLDLWGRGTLVTVSS
VL: DIVMTQSPDSLAVSLGARATINCKSSQSVLYSSNNQNYLTWYQQKPGQPPKLLIKWASTRESGVPDRFSGSGSGTDFTLTISSLQAEDVAVYYCQQYASSPYTFGQGTKLEIK
notes: human IgG1 Fc (H1H)

% Total Binding relative to Control I [1]: 174% | Kd [2]: 5 nM | T 1/2 [2]: 3 min | koff [2]: 0.00361 s⁻¹ | kon [2]: 723000 M⁻¹ s⁻¹ | Kd [3]: 0.138 nM | T 1/2 [3]: 60 min | koff [3]: 0.000194 s⁻¹ | kon [3]: 1.41e+06 M⁻¹ s⁻¹ | FACS Cell Binding (Fold Above Background) [4]: 1 fold
B6: H1H6774P (antibody, human IgG1, V domains shown)
VH: EVQLVESGGGLAQPGGSLRLSCVASGFTFSTYWMSWVRQAPGKGLDWVGNIKQDGSEQNYVDSVRGRFTISRDNAKNSLFLQMNSLRAEDTGVYYCATLLTKGDYWGQGTLVTVSS
VL: DIQMTQSPSSLSASVGDSVTITCRASQDISNYLDWFQQKPGKAPKSLIYAASILQGGVPSRFSGSGYGTDFTLTISSLQPEDFATYYCRQYKTYPFTFGPGTKVDIK
notes: human IgG1 Fc (H1H)

% Total Binding relative to Control I [1]: 159% | Kd [2]: 4.54 nM | T 1/2 [2]: 7.1 min | koff [2]: 0.00162 s⁻¹ | kon [2]: 356000 M⁻¹ s⁻¹ | Kd [3]: 0.107 nM | T 1/2 [3]: 119 min | koff [3]: 9.73e-05 s⁻¹ | kon [3]: 907000 M⁻¹ s⁻¹ | FACS Cell Binding (Fold Above Background) [4]: 38 fold
B7: H1H6967N (antibody, human IgG1, V domains shown)
VH: EVQLVESGGDLVHPGRSLRLSCAASGFPFDEYAMHWVRQVPGKGLEWVSGISWSNNNIGYADSVKGRFTISRDNAKNSLYLQMNSLRPEDTAFYYCAKSGIFDSWGQGTLVTVSS
VL: EIVMTQSPATLSVSPGERATLSCRASQSVSRDLAWYQQKPGQAPRLLIHGASTRATGIPARFSGSGSGAEFTLIISSLQSEDFAVYYCQQYNNWPLTFGGGTKVEIK
notes: also called H2M6967N

% Total Binding relative to Control I [1]: 151% | Kd [2]: 9.9 nM | T 1/2 [2]: 1 min | koff [2]: 0.00906 s⁻¹ | kon [2]: 914000 M⁻¹ s⁻¹ | Kd [3]: 0.0691 nM | T 1/2 [3]: 93 min | koff [3]: 0.000125 s⁻¹ | kon [3]: 1.8e+06 M⁻¹ s⁻¹ | FACS Cell Binding (Fold Above Background) [4]: 1 fold
B8: H1H6797P (antibody, human IgG1, V domains shown)
VH: EVQLVESGGGLVQPGGSLRLSCIVSGFTFSGSWMSWVRQLPGKGLEWVANIKEDGSDSYYVDSVEGRFTISRDNAKSSLYLQMNSLRVDDTAVYFCARARTVPLHYWGQGTLVTVSS
VL: DIQMTQSPSTLSASVGDRVTITCRASQSINIWLAWYQQKPGKAPKLLIYRASYLESGVPSSFAGGGSGTEFTLTISSLQPDDFGTYYCQHYNSYPFTFGQGTKLEIK
notes: human IgG1 Fc (H1H)

% Total Binding relative to Control I [1]: 111% | Kd [2]: 9.37 nM | T 1/2 [2]: 4 min | koff [2]: 0.00286 s⁻¹ | kon [2]: 305000 M⁻¹ s⁻¹ | Kd [3]: 0.352 nM | T 1/2 [3]: 66 min | koff [3]: 0.000176 s⁻¹ | kon [3]: 499000 M⁻¹ s⁻¹ | FACS Cell Binding (Fold Above Background) [4]: 37 fold
B9: H1H6792P (antibody, human IgG1, V domains shown)
VH: EVQLVESGGGLVQPGRSLRLSCAASGFTLDDHAVHWVRQAPGKGLEWVSGISWNSVYIDYADSVKGRFTIFRDNAKNSLYLQMNSLRAEDTAFYYCARDIEGARDYWGQGTLVTVSS
VL: DIQMTQSPSSLSASVGDRVTITCRASQGIRNDLGWYQQKPGKAPKRLIYAASSLQSGVPSRFSGSGYGTEFTLTISSLQPEDFAPYYCLQHNSYPLTFGGGTKVEIK
notes: human IgG1 Fc (H1H)

% Total Binding relative to Control I [1]: 166% | Kd [2]: 4.74 nM | T 1/2 [2]: 9 min | koff [2]: 0.0013 s⁻¹ | kon [2]: 273000 M⁻¹ s⁻¹ | Kd [3]: 0.282 nM | T 1/2 [3]: 83 min | koff [3]: 0.000138 s⁻¹ | kon [3]: 491000 M⁻¹ s⁻¹ | FACS Cell Binding (Fold Above Background) [4]: 37 fold
B10: H1H6783P (antibody, human IgG1, V domains shown)
VH: QVQLQQSGPGLVKPSQTLSLTCAISGDSVSSNTFAWNWIRQSPSRGLEWLGRTYYRSKWYIDYAESVKSRITITPDTSKNQFSLQLNSVTPEDTALYYCAGGYTYAPRGAFDIWGQGTMVTVSS
VL: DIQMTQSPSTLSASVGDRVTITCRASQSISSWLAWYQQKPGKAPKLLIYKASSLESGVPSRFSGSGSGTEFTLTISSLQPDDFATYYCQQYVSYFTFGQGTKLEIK
notes: human IgG1 Fc (H1H)
